According to US20240067740A1 (NOVAROCK BIOTHERAPEUTICS, published 2024):
Residue numbers refer to the chain shown, from its start.

T1: murine TNFR2 (Mus musculus, UniProt P25119 23-474)
T1 construct: Stably overexpressed on HEK293T cells; also called mouse TNFR2
T1 sequence: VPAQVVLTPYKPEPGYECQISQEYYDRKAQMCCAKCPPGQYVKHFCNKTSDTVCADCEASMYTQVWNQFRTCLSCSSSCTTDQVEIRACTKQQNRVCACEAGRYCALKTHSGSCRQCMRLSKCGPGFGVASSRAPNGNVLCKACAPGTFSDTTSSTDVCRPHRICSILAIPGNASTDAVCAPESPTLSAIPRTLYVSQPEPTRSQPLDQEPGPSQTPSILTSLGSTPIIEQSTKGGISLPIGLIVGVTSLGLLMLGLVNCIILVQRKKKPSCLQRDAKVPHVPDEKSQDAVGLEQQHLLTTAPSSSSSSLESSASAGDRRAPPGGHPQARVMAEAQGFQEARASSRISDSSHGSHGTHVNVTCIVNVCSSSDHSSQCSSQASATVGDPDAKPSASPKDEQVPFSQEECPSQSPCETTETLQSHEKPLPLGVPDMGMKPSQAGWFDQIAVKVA

T2: human TNFR2 (Homo sapiens, UniProt P20333 23-461)
T2 construct: also called hTNFR2; TNFRSF1B
T2 sequence: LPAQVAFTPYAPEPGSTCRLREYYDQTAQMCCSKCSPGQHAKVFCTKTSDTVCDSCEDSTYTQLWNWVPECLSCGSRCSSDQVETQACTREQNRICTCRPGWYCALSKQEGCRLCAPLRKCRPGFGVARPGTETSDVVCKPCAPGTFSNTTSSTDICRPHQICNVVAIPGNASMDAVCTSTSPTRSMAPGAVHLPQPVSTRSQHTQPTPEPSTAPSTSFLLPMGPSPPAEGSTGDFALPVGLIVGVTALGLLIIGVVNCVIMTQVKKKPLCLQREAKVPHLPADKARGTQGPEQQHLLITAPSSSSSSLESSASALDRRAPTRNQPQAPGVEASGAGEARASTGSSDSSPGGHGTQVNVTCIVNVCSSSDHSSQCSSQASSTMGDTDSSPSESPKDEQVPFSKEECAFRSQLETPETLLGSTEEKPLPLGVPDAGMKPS

T3: cynomolgus TNFR2 (Macaca fascicularis, UniProt P20333 23-461 (human entry))
T3 construct: Stably overexpressed on HEK293T cells; also called cynoTNFR2
T3 chain: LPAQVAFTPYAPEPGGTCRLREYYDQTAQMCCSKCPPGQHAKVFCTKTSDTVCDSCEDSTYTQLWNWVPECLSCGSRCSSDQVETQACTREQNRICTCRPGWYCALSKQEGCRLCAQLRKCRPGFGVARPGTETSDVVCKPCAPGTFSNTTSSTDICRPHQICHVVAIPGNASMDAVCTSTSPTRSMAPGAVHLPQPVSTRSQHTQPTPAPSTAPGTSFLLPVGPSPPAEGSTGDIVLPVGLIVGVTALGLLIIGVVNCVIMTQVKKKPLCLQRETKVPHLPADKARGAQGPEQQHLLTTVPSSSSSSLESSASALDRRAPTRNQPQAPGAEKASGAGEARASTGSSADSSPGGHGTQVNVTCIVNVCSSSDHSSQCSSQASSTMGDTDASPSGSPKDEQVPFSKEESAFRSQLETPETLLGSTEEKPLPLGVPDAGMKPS

T4: human TNFR1 (Homo sapiens, UniProt P19438 30-455)
T4 construct: Stably overexpressed on CHO-K1 cells; also called TNFRSF1A; p55
T4 sequence: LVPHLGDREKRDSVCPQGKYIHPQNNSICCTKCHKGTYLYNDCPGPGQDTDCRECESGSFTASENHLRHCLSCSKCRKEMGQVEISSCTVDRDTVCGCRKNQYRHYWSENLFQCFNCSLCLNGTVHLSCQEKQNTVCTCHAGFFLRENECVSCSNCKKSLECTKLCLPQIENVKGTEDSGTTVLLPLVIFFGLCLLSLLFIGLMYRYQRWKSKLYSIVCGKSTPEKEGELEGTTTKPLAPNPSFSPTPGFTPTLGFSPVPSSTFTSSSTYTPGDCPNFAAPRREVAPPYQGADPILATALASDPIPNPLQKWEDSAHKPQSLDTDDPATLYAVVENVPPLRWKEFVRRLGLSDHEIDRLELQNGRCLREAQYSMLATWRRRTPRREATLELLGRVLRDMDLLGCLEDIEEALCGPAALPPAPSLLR

B1: R2_mAb-2 (antibody, V domains shown)
VH: QVQLVQSGPEVKKPGASVKVSCKASGYTFTNYGISWVRQAPGQGLEWMGWINAYNGNTNYAQKLQGRVTMTTDTSTSTAYMELRSLRSDDTAVYYCARDGGYGSGTYHNDYYYYYGMDVWGQGTTVTVSS
VL: EIVLTQSPDFQSMTPEEKVTITCRASQSIGSNLHWYQQKPDQSPKLLIKFASQSISGVPSRFSGSGSGTDFTLTINSLEAEDAATYYCHQSSSLPFTFGPGTKVDIK
notes: also called R2-2
B2: R2_mAb-4 (antibody, V domains shown)
VH: QVQLVQSGAEVRKPGASVKVSCKASGYTFTSYSVTWVRQAPGQGLEWMGWINAFSGNTHYAQNLQDRVTMTTDTSTSTAYMELRSLRSDDTAVYYCAREEGSGSYEDYYGMDVWGQGTTVTVSS
VL: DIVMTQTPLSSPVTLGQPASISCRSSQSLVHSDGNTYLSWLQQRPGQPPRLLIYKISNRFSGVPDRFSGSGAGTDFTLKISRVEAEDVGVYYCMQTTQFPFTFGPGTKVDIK
notes: also called R2-4
B3: R2_mAb-1 (antibody, V domains shown)
VH: QVQLVESGGGVVQPGRSLRLSCAASGFTFSSYGMHWVRQAPGKGLEWVAVIWFDEDNKDYADSVKGRFTISRDNSKNTLYLQMSSLRAEDTAVYYCARDNDILTGYYYYYGMDVWGQGTTVTVSS
VL: DIQLTQSPSFLSASVGDRVTITCRASQDISSYLAWYQQKPGKAPKLLIYAASTLQSGVPSRFSGSGSGTEFTLTISSLQPEDFATYYCQQLNSYPPTFGQGTKVEIK
notes: also called R2-1
B4: R2_mAb-5 (antibody, V domains shown)
VH: QVQLVQSGAEVKKPGASVTVSCKASGYTFSTYGIIWVRQAPGQGLEWMGWISAFNGNANSAQKLQDRVTMTTDTSTSTAYMELRSLRSDDTAVYYCARGEDFFDYWGQGTLVTVSS
VL: DIVMTQTPLSSPVTLGQPASISCRSSQSLVHSDGNTYLSWLQQRPGQPPRLLIYKVSSRFSGVPDRFSGSGAGTDFTLKISRVEAEDVGVYYCTQSTQFPFTFGRGTKLEIK
notes: also called R2-5
B5: R2_mAb-6 (antibody, V domains shown)
VH: QVQLVQSGAEVKKPGASVKVSCKASGYTFLSYGLSWVRQAPGQGLEWMGWINAYNGNTNYAQNLQDRVTMTTDTSTSTAYMELRSLRSDDMAVYYCARWDILTAYYSSDAFDIWGQGTMVTVSS
VL: B4 VL with S39N, S58N, S96T, F101I, R105Q, K108R
notes: also called R2-6
B6: R2_mAb-3 (antibody, V domains shown)
VH: QVQLQESGPGLVKPSETLSLTCTVSGGSISSYYWSWIRQAPGKGLEWIGYIYYSGSTNYNPSLKSRVTISVDTSKNQFSLKLSSVTAADTAVYYCARDDGSSDYGMDVWGQGTTVTVSS
VL: AIQLTQSPSSLSASVGDRVTITCRASQGISSALAWYQQKPGKAPKLLIYDASSLESGVPSRFTGSGTDFTLTISSLQPEDFATYYCQQFNNYMYTFGQGTKLEIK
notes: also called R2-3

Target: T1, murine TNFR2
Assay: flow cytometry on HEK293T cells stably overexpressing murine TNFR2
Description: (§1) HEK293T cells stably overexpressing human TNFR2, cynomolgus TNFR2, or murine TNFR2 were aliquoted in FACS buffer and incubated with serial dilutions of TNFR2 antibody for 2 hours.
(§2) The concentration-response was fitted to a four-parameter logistic non-linear regression model in the GraphPad Prism software to obtain the EC₅₀ values.

Binder	binding result
B1	no binding (tested: up to 10 (unit cut off in the text))
B2	no binding (tested: up to 10 (unit cut off in the text))
B3	no binding (tested: up to 10 (unit cut off in the text))
B4	no binding (tested: up to 10 (unit cut off in the text))
B5	no binding (tested: up to 10 (unit cut off in the text))
B6	no binding (tested: up to 10 (unit cut off in the text))

Target: T2, human TNFR2
Assay: image binding assay on adherent HEK293T cells overexpressing human TNFR2 (384-well plate)
Description: (§3) HEK293T cells stably overexpressing human TNFR2 or CHO-K1 stably overexpressing human TNFR1 were aliquoted in FACS buffer and incubated with serial dilutions of TNFR2 antibody. […] Following an incubation, the reactions were subsequently analyzed by flow cytometry. […] The concentration-response was fitted to a four-parameter logistic non-linear regression model in the GraphPad Prism software to obtain the EC₅₀ values.

Binder	EC50 (read off the curve) [nM]
B2	~0.2
B4	~0.1

Target: T2, human TNFR2
Assay: flow cytometry on HEK293T cells stably overexpressing human TNFR2, Alexa Fluor 647 secondary antibody
Description: as §3

Binder	EC50 (read off the curve) [nM]
B1	~0.3
B2	~0.1
B3	~0.1
B4	~0.1
B5	~0.1
B6	~0.4

Target: T3, cynomolgus TNFR2
Assay: flow cytometry on HEK293T cells stably overexpressing cynomolgus TNFR2
Description: as §1, §2

Binder	binding result
B1	binds
B2	binds
B3	binds
B4	binds
B5	binds

Target: T4, human TNFR1
Assay: flow cytometry on CHO-K1 cells stably overexpressing human TNFR1
Description: as §3

Binder	binding result
B1	no binding (tested: up to 10 µg/mL)
B2	no binding (tested: up to 10 µg/mL)
B3	no binding (tested: up to 10 µg/mL)
B4	no binding (tested: up to 10 µg/mL)
B5	no binding (tested: up to 10 µg/mL)
B6	no binding (tested: up to 10 µg/mL)

Target: T2, human TNFR2
Assay: binding to cells stably overexpressing human TNFR2, serial dilutions, flow cytometry or imaging
Description: as §3

Binder	EC50 [nM]
B1	0.35
B2	0.11
B3	0.1
B4	0.1
B5	0.14
B6	0.38
